According to patent publication US12630600B2 (MEDIMMUNE LIMITED, priority 2022, dated 2026):
Starred links: 1 amine or outer side, 2 acyl side, 3 side chain; linkers in the order of their positions; H or OH if unused. Non-standard residues stand in square brackets, D forms with d. Groups on a side chain read outwards from the residue. No end group written: not given here. *: point of attachment. C20 diacid = O=C(O)CCCCCCCCCCCCCCCCCCC(=O)*; C18 diacid = O=C(O)CCCCCCCCCCCCCCCCC(=O)*; γGlu = O=C(O)[C@H](CCC(=O)[*:2])N[*:1]; αMeF = C[C@](N)(Cc1ccccc1)C(=O)O; AEEA = NCCOCCOCC(=O)O; Aib = CC(C)(N)C(=O)O

B1: Peptide 152 (peptide)
peptide: H[Aib]QGTFTSDVSK[αMeF]LDSK([AEEA-AEEA-γGlu-C18 diacid])RAQDFVRWLL[Aib]E-OH
modifications: N-terminus assumed
SMILES: CC(C)C[C@H](NC(=O)[C@H](Cc1c[nH]c2ccccc12)NC(=O)[C@H](CCCNC(=N)N)NC(=O)[C@@H](NC(=O)[C@H](Cc1ccccc1)NC(=O)[C@H](CC(=O)O)NC(=O)[C@H](CCC(N)=O)NC(=O)[C@H](C)NC(=O)[C@H](CCCNC(=N)N)NC(=O)[C@H](CCCCNC(=O)COCCOCCNC(=O)COCCOCCNC(=O)CC[C@H](NC(=O)CCCCCCCCCCCCCCCCC(=O)O)C(=O)O)NC(=O)[C@H](CO)NC(=O)[C@H](CC(=O)O)NC(=O)[C@H](CC(C)C)NC(=O)[C@](C)(Cc1ccccc1)NC(=O)[C@H](CCCCN)NC(=O)[C@H](CO)NC(=O)[C@@H](NC(=O)[C@H](CC(=O)O)NC(=O)[C@H](CO)NC(=O)[C@@H](NC(=O)[C@H](Cc1ccccc1)NC(=O)[C@@H](NC(=O)CNC(=O)[C@H](CCC(N)=O)NC(=O)C(C)(C)NC(=O)[C@@H](N)Cc1c[nH]cn1)[C@@H](C)O)[C@@H](C)O)C(C)C)C(C)C)C(=O)N[C@@H](CC(C)C)C(=O)NC(C)(C)C(=O)N[C@@H](CCC(=O)O)C(=O)O
B2: Peptide 153 (peptide)
peptide: H[Aib]QGTFTSDVSK[αMeF]LDSK([AEEA-AEEA-γGlu-C20 diacid])RAQDFVRWLL[Aib]E-OH
modifications: N-terminus assumed
SMILES: CC(C)C[C@H](NC(=O)[C@H](Cc1c[nH]c2ccccc12)NC(=O)[C@H](CCCNC(=N)N)NC(=O)[C@@H](NC(=O)[C@H](Cc1ccccc1)NC(=O)[C@H](CC(=O)O)NC(=O)[C@H](CCC(N)=O)NC(=O)[C@H](C)NC(=O)[C@H](CCCNC(=N)N)NC(=O)[C@H](CCCCNC(=O)COCCOCCNC(=O)COCCOCCNC(=O)CC[C@H](NC(=O)CCCCCCCCCCCCCCCCCCC(=O)O)C(=O)O)NC(=O)[C@H](CO)NC(=O)[C@H](CC(=O)O)NC(=O)[C@H](CC(C)C)NC(=O)[C@](C)(Cc1ccccc1)NC(=O)[C@H](CCCCN)NC(=O)[C@H](CO)NC(=O)[C@@H](NC(=O)[C@H](CC(=O)O)NC(=O)[C@H](CO)NC(=O)[C@@H](NC(=O)[C@H](Cc1ccccc1)NC(=O)[C@@H](NC(=O)CNC(=O)[C@H](CCC(N)=O)NC(=O)C(C)(C)NC(=O)[C@@H](N)Cc1c[nH]cn1)[C@@H](C)O)[C@@H](C)O)C(C)C)C(C)C)C(=O)N[C@@H](CC(C)C)C(=O)NC(C)(C)C(=O)N[C@@H](CCC(=O)O)C(=O)O
B3: Peptide 518 (peptide)
peptide: H[Aib]QGTFTSDVSK[αMeF]LDTK([AEEA-AEEA-γGlu-γGlu-C18 diacid])RARDFVQWLLE[Aib]G-OH
modifications: N-terminus assumed
SMILES: CC(C)C[C@H](NC(=O)[C@H](Cc1c[nH]c2ccccc12)NC(=O)[C@H](CCC(N)=O)NC(=O)[C@@H](NC(=O)[C@H](Cc1ccccc1)NC(=O)[C@H](CC(=O)O)NC(=O)[C@H](CCCNC(=N)N)NC(=O)[C@H](C)NC(=O)[C@H](CCCNC(=N)N)NC(=O)[C@H](CCCCNC(=O)COCCOCCNC(=O)COCCOCCNC(=O)CC[C@H](NC(=O)CC[C@H](NC(=O)CCCCCCCCCCCCCCCCC(=O)O)C(=O)O)C(=O)O)NC(=O)[C@@H](NC(=O)[C@H](CC(=O)O)NC(=O)[C@H](CC(C)C)NC(=O)[C@](C)(Cc1ccccc1)NC(=O)[C@H](CCCCN)NC(=O)[C@H](CO)NC(=O)[C@@H](NC(=O)[C@H](CC(=O)O)NC(=O)[C@H](CO)NC(=O)[C@@H](NC(=O)[C@H](Cc1ccccc1)NC(=O)[C@@H](NC(=O)CNC(=O)[C@H](CCC(N)=O)NC(=O)C(C)(C)NC(=O)[C@@H](N)Cc1c[nH]cn1)[C@@H](C)O)[C@@H](C)O)C(C)C)[C@@H](C)O)C(C)C)C(=O)N[C@@H](CC(C)C)C(=O)N[C@@H](CCC(=O)O)C(=O)NC(C)(C)C(=O)NCC(=O)O
B4: Peptide 519 (peptide)
peptide: H[Aib]QGTFTSDVSK[αMeF]LDTK([γGlu-γGlu-AEEA-AEEA-γGlu-γGlu-C18 diacid])RARDFVQWLLE[Aib]G-OH
modifications: N-terminus assumed
SMILES: CC(C)C[C@H](NC(=O)[C@H](Cc1c[nH]c2ccccc12)NC(=O)[C@H](CCC(N)=O)NC(=O)[C@@H](NC(=O)[C@H](Cc1ccccc1)NC(=O)[C@H](CC(=O)O)NC(=O)[C@H](CCCNC(=N)N)NC(=O)[C@H](C)NC(=O)[C@H](CCCNC(=N)N)NC(=O)[C@H](CCCCNC(=O)CC[C@H](NC(=O)CC[C@H](NC(=O)COCCOCCNC(=O)COCCOCCNC(=O)CC[C@H](NC(=O)CC[C@H](NC(=O)CCCCCCCCCCCCCCCCC(=O)O)C(=O)O)C(=O)O)C(=O)O)C(=O)O)NC(=O)[C@@H](NC(=O)[C@H](CC(=O)O)NC(=O)[C@H](CC(C)C)NC(=O)[C@](C)(Cc1ccccc1)NC(=O)[C@H](CCCCN)NC(=O)[C@H](CO)NC(=O)[C@@H](NC(=O)[C@H](CC(=O)O)NC(=O)[C@H](CO)NC(=O)[C@@H](NC(=O)[C@H](Cc1ccccc1)NC(=O)[C@@H](NC(=O)CNC(=O)[C@H](CCC(N)=O)NC(=O)C(C)(C)NC(=O)[C@@H](N)Cc1c[nH]cn1)[C@@H](C)O)[C@@H](C)O)C(C)C)[C@@H](C)O)C(C)C)C(=O)N[C@@H](CC(C)C)C(=O)N[C@@H](CCC(=O)O)C(=O)NC(C)(C)C(=O)NCC(=O)O
B5: Peptide 33 (peptide)
peptide: H[Aib]QGTFTSDVSK[αMeF]LDSK([AEEA-AEEA-γGlu-C18 diacid])RAQDFVQWLE[Aib]T-OH
modifications: N-terminus assumed
SMILES: CC(C)C[C@H](NC(=O)[C@H](Cc1c[nH]c2ccccc12)NC(=O)[C@H](CCC(N)=O)NC(=O)[C@@H](NC(=O)[C@H](Cc1ccccc1)NC(=O)[C@H](CC(=O)O)NC(=O)[C@H](CCC(N)=O)NC(=O)[C@H](C)NC(=O)[C@H](CCCNC(=N)N)NC(=O)[C@H](CCCCNC(=O)COCCOCCNC(=O)COCCOCCNC(=O)CC[C@H](NC(=O)CCCCCCCCCCCCCCCCC(=O)O)C(=O)O)NC(=O)[C@H](CO)NC(=O)[C@H](CC(=O)O)NC(=O)[C@H](CC(C)C)NC(=O)[C@](C)(Cc1ccccc1)NC(=O)[C@H](CCCCN)NC(=O)[C@H](CO)NC(=O)[C@@H](NC(=O)[C@H](CC(=O)O)NC(=O)[C@H](CO)NC(=O)[C@@H](NC(=O)[C@H](Cc1ccccc1)NC(=O)[C@@H](NC(=O)CNC(=O)[C@H](CCC(N)=O)NC(=O)C(C)(C)NC(=O)[C@@H](N)Cc1c[nH]cn1)[C@@H](C)O)[C@@H](C)O)C(C)C)C(C)C)C(=O)N[C@@H](CCC(=O)O)C(=O)NC(C)(C)C(=O)N[C@H](C(=O)O)[C@@H](C)O
B6: Peptide 34 (peptide)
peptide: H[Aib]QGTFTSDVSK[αMeF]LDSK([AEEA-AEEA-γGlu-C18 diacid])RAQDFVQWLL[Aib]E-OH
modifications: N-terminus assumed
SMILES: CC(C)C[C@H](NC(=O)[C@H](Cc1c[nH]c2ccccc12)NC(=O)[C@H](CCC(N)=O)NC(=O)[C@@H](NC(=O)[C@H](Cc1ccccc1)NC(=O)[C@H](CC(=O)O)NC(=O)[C@H](CCC(N)=O)NC(=O)[C@H](C)NC(=O)[C@H](CCCNC(=N)N)NC(=O)[C@H](CCCCNC(=O)COCCOCCNC(=O)COCCOCCNC(=O)CC[C@H](NC(=O)CCCCCCCCCCCCCCCCC(=O)O)C(=O)O)NC(=O)[C@H](CO)NC(=O)[C@H](CC(=O)O)NC(=O)[C@H](CC(C)C)NC(=O)[C@](C)(Cc1ccccc1)NC(=O)[C@H](CCCCN)NC(=O)[C@H](CO)NC(=O)[C@@H](NC(=O)[C@H](CC(=O)O)NC(=O)[C@H](CO)NC(=O)[C@@H](NC(=O)[C@H](Cc1ccccc1)NC(=O)[C@@H](NC(=O)CNC(=O)[C@H](CCC(N)=O)NC(=O)C(C)(C)NC(=O)[C@@H](N)Cc1c[nH]cn1)[C@@H](C)O)[C@@H](C)O)C(C)C)C(C)C)C(=O)N[C@@H](CC(C)C)C(=O)NC(C)(C)C(=O)N[C@@H](CCC(=O)O)C(=O)O
B7: Peptide 36 (peptide)
peptide: H[Aib]QGTFTSDVSK[αMeF]LDSK([AEEA-AEEA-γGlu-C18 diacid])RARDFVQWLL[Aib]T-OH
modifications: N-terminus assumed
SMILES: CC(C)C[C@H](NC(=O)[C@H](Cc1c[nH]c2ccccc12)NC(=O)[C@H](CCC(N)=O)NC(=O)[C@@H](NC(=O)[C@H](Cc1ccccc1)NC(=O)[C@H](CC(=O)O)NC(=O)[C@H](CCCNC(=N)N)NC(=O)[C@H](C)NC(=O)[C@H](CCCNC(=N)N)NC(=O)[C@H](CCCCNC(=O)COCCOCCNC(=O)COCCOCCNC(=O)CC[C@H](NC(=O)CCCCCCCCCCCCCCCCC(=O)O)C(=O)O)NC(=O)[C@H](CO)NC(=O)[C@H](CC(=O)O)NC(=O)[C@H](CC(C)C)NC(=O)[C@](C)(Cc1ccccc1)NC(=O)[C@H](CCCCN)NC(=O)[C@H](CO)NC(=O)[C@@H](NC(=O)[C@H](CC(=O)O)NC(=O)[C@H](CO)NC(=O)[C@@H](NC(=O)[C@H](Cc1ccccc1)NC(=O)[C@@H](NC(=O)CNC(=O)[C@H](CCC(N)=O)NC(=O)C(C)(C)NC(=O)[C@@H](N)Cc1c[nH]cn1)[C@@H](C)O)[C@@H](C)O)C(C)C)C(C)C)C(=O)N[C@@H](CC(C)C)C(=O)NC(C)(C)C(=O)N[C@H](C(=O)O)[C@@H](C)O

target: human GLP-1 receptor (human, UniProt P43220); assay: cell-based or functional assay

Binder | cAMP production EC50
B1 | 0.0119 nM
B2 | 0.0412 nM
H[Aib]QGTFTSDVSK[αMeF]LDSK([AEEA-AEEA-γGlu-C18 diacid])RARDFVRWLL[Aib]TE-OH (also: αMePhe at 23 (V)) [Peptide 166] | 0.048 nM
B3 | 0.031 nM
B4 | 0.172 nM
H[Aib]QGTFTSDVSK[αMeF]LDTKRARDFVQWLLE[Aib]G-OH (not fully specified (residue 17)) [Peptide 520] | 0.543 nM
B5 | 0.213 nM
B6 | 0.0824 nM
B7 | 0.0431 nM

target: human glucagon receptor (human, UniProt P47871); assay: cell-based or functional assay

Binder | cAMP production EC50
B1 | 0.0204 nM
B2 | 0.099 nM
H[Aib]QGTFTSDVSK[αMeF]LDSK([AEEA-AEEA-γGlu-C18 diacid])RARDFVRWLL[Aib]TE-OH (also: αMePhe at 23 (V)) [Peptide 166] | 0.27 nM
B3 | 0.0773 nM
B4 | 0.386 nM
H[Aib]QGTFTSDVSK[αMeF]LDTKRARDFVQWLLE[Aib]G-OH (not fully specified (residue 17)) [Peptide 520] | 1.62 nM
B5 | 0.548 nM
B6 | 0.161 nM
B7 | 0.278 nM
